Laboratory results published in patent US20180155451A1 (published 2018).
Changes are numbered by the printed parent chain. Names may count otherwise. Like-named read-outs stand apart in the source and are kept apart here.

Columns and labels:
FcγRIa = molecular target: T1, FcγRIa (human, UniProt P12314 16-292); assay: SPR (Biacore4000), kinetic analysis
T1 construct: extracellular domain; also called FcgRIa; FcgRI; not shown: His tag attached to the C terminus
Description: The variants described above were assessed for their binding to FcγR according to the method described in Reference Example 8.
Analysis of interaction between obj ective antibody and the FcγR was carried out using Biacore T100 (GE Healthcare), Biacore T200, Biacore A100, and Biacore 4000. HBS-EP+ (GE Healthcare) was used as the running buffer, and the measurement temperature was set to 25° C. Chips produced by immobilizing the antigen peptide by the amine coupling method to a Series S sensor Chip CM5 (GE Healthcare), chips produced by allowing preliminarily biotinylated antigen peptides to interact with and immobilize onto a Series S Sensor Chip SA (certified) (GE Healthcare), chips produced by immobilizing Protein L (ACTIGEN, BioVision) to Series S Sencor Chip CM5 (GE Healthcare), or chips produced by immobilizing Protein A/G (Thermo Scientific) to Series S Sencor Chip CM5 (GE Healthcare) were used. Antibodies of interest were captured onto these chips, and allowed to interact to each FcγR diluted with running buffer. To regenerate and repeatedly use the chip, the antibodies captured onto the chip were washed off by reacting 10 mM glycine-HCl, pH 1.5.

[1] = molecular target: T2, FcγRIIIa extracellular domain with C-terminal His tag (human, UniProt P08637 17-208); assay: SPR (Biacore), antibody captured, FcγRIIIa as analyte, 1:1 Langmuir kinetic fit
T2 construct: extracellular domain; also called FcgRIIIa; CD16A
T2 sequence (P08637 17-208): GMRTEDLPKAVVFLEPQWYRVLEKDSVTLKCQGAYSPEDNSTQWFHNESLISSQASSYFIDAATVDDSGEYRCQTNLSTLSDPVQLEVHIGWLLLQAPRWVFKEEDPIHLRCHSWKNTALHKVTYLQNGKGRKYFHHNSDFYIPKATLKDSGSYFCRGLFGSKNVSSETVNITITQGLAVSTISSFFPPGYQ
Description: (§1) To assess this hypothesis, GpH7-A53 (SEQ ID NO: 42) resulting from the introduction of S239D into GpH7-A5 was constructed, and, this is combined with GpH7-B78 introduced with S239D, A330L, and I332E, and the expression and preparation were performed according to the method described in Reference Example 1. The effect of the combination of S239D and S239D, A330L, and I332E was assessed by comparing the FcγRIIIa binding between the heterodimerized and homodimerized antibodies with S239D, A330L, and I332E according to the method described in Reference Example 2 (Table 14).
(§2) Analysis of interaction between objective antibody and the FcγR was carried out using Biacore T100 (GE Healthcare). HBS-EP+ (GE Healthcare) was used as the running buffer, and the measurement temperature was set to 25° C. Chips produced by immobilizing the antigen peptide by the amine coupling method to a Series S Sencor Chip CM5 (GE Healthcare), or alternatively, chips produced by allowing preliminarily biotinylated antigen peptides to interact with and immobilize onto a Series S Sensor Chip SA (certified) (GE Healthcare) were used. Antibodies of interest were captured onto an antigen peptide-immobilized chip, and allowed to interact to each FcγR diluted with running buffer. To regenerate and repeatedly use the chip, the antibodies captured on the chip were washed off by reacting 10 mM glycine-HCl, pH 1.5.
(§3) The FcγR-binding activity of each antibody was assessed primarily using as an indicator the FcγR-binding activity and dissociation constant for FcγR.

[2] = molecular target: T2, FcγRIIIa extracellular domain with …; assay: SPR (Biacore), ratio of KD values for FcγRIIIa
Excerpt: GpH7-A57 (SEQ ID NO: 40) resulting from the introduction of all of S239D, A330L, and I332E into GpH7-A5; GpH7-B78 (SEQ ID NO: 41) resulting from the introduction of all of S239D, A330L, and I332E into GpH7-B3; GpH7-TA7 (SEQ ID NO: 31) resulting from the introduction of all of L234Y, G236W, and S298A into GpH7-A5; and GpH7-TA45 (SEQ ID NO: 32) resulting from the introduction of all of L234Y, G236W, and S298A into GpH7-B3. […] The prepared antibodies were compared for the FcγRIIIa-binding activity using, as an indicator, KD for FcγRIIIa that was determined according to the method described in Reference Example 2.
as §2

[3] = molecular target: T2, FcγRIIIa extracellular domain with …; assay: SPR (Biacore), ratio of KD values for FcγRIIIa; remark: listed apart in the source
Description: as §1, §2

[4] = molecular target: T2, FcγRIIIa extracellular domain with …; assay: SPR (Biacore), antibody captured, FcγRIIIa as analyte, 1:1 Langmuir kinetic fit; remark: listed apart in the source
Description: The prepared antibodies were compared for the FcγRIIIa-binding activity using, as an indicator, KD for FcγRIIIa that was determined according to the method described in Reference Example 2.
as §2, §3

[5] = molecular target: T2, FcγRIIIa extracellular domain with …; assay: SPR (Biacore), ratio of KD values for FcγRIIIa; remark: listed apart in the source
Excerpt: (§4) Then, GpH7-TA54 (SEQ ID NO: 46) resulting from the introduction of Y296W into GpH7-TA22 was constructed, and expressed and prepared in combination with GpH7-B78 according to the method described in Reference Example 1. Furthermore, GpH7-TA58 (SEQ ID NO: 45) resulting from the introduction of Y296W into GpH7-B78 was constructed, and expressed and prepared in combination with GpH7-TA22 according to the method described in Reference Example 1. To assess the effect of combination with Y296W, the prepared antibodies were compared for the FcγRIIIa-binding activity according to the method described in Reference Example 2 (Table 17).
as §2

[6] = molecular target: T2, FcγRIIIa extracellular domain with …; assay: SPR (Biacore), antibody captured, FcγRIIIa as analyte, 1:1 Langmuir kinetic fit; remark: listed apart in the source
Excerpt: as §4, §2, §3

[7] = molecular target: T2, FcγRIIIa extracellular domain with …; assay: SPR (Biacore), ratio of KD values for FcγRIIIa; remark: listed apart in the source
Excerpt: (§5) First, it was considered which H chain should be introduced with Y296W. GpH7-TA52 (SEQ ID NO: 44) resulting from the introduction of the mutation Y296W into GpH7-TA7 was constructed, and expressed and prepared in combination with GpH7-B78 according to the method described in Reference Example 1. Furthermore, GpH7-TA58 (SEQ ID NO: 45) resulting from the introduction of Y296W into GpH7-B78 was constructed, and expressed and prepared in combination with GpH7-TA22 according to the method described in Reference Example 1. To assess the effects of combinations with Y296W, the prepared antibodies were compared for the FcγRIIIa-binding activity according to the method described in Reference Example 2 (Table 16).
as §2

[8] = molecular target: T2, FcγRIIIa extracellular domain with …; assay: SPR (Biacore), antibody captured, FcγRIIIa as analyte, 1:1 Langmuir kinetic fit; remark: listed apart in the source
Excerpt: as §5, §2, §3

T1 sequence (P12314 16-292): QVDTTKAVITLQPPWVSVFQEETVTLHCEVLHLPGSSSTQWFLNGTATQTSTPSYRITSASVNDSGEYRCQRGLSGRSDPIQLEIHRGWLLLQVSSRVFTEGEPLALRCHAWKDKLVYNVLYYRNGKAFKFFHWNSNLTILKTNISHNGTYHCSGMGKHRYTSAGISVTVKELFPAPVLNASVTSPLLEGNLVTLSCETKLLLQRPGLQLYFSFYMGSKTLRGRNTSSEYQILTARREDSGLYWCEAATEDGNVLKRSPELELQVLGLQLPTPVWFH

B1: H240-Kn120/H240-Hl073/L73-k0 (antibody, human IgG1, kappa)
heavy 1: QDQLVQSGAEVKKPGASVKVSCKASGFNIKDTYIQWVRQAPGQGLEWMGRIDPLRKQTKYREKFEGRVTITADTSTNTAYMELSSLRSEDTAVYYCVRSGREFDYWGQGTLVTVSSASTKGPSVFPLAPSSKSTSGGTAALGCLVKDYFPEPVTVSWNSGALTSGVHTFPAVLQSSGLYSLSSVVTVPSSSLGTQTYICNVNHKPSNTKVDKKVEPKSCDKTHTCPPCPAPEYYWGPMVFLFPPKPKDTLMISRTPEVTCVVVDVSDEDPEVKFNWYVDGVEVHNAKTKPREEQYNATYRVVSVLTVLHQDWLNGKEYKCKVSNKDLPAPIEKTISKAKGQPREPQVCTLPPSRDELTKNQVSLWCLVKGFYPSDIAVEWESNGQPENNYKTTPPVLDSDGSFFLYSKLTVDKSRWQQGNVFSCSVMHEALHNHYTQKSLSLSP
heavy 2: QDQLVQSGAEVKKPGASVKVSCKASGFNIKDTYIQWVRQAPGQGLEWMGRIDPLRKQTKYREKFEGRVTITADTSTNTAYMELSSLRSEDTAVYYCVRSGREFDYWGQGTLVTVSSASTKGPSVFPLAPSSKSTSGGTAALGCLVKDYFPEPVTVSWNSGALTSGVHTFPAVLQSSGLYSLSSVVTVPSSSLGTQTYICNVNHKPSNTKVDKKVEPKSCDKTHTCPPCPAPELLSGPSVFLFPPKPKDTLMISRTPEVTCVVVDVSHEEPEVKFNWYVDGVEVHNAKTKPREEQYNSTYRVVSVLTVLHQDWLNGKEYKCKVSNDALPKPIEETISKAKGQPREPQVYTLPPSRCELTKNQVSLSCAVKGFYPSDIAVEWESNGQPENNYKTTPPVLDSDGSFFLVSKLTVDKSRWQQGNVFSCSVMHEALHNHYTQKSLSLSP
light: DIQMTQSPSSLSASVGDRVTITCRASQDIHKYIAWYQQKPGQAPRLLIQYTSTLQPGVPSRFSGSGSGTDYTFTISSLQPEDIATYYCLQYEQLRTFGGGTKVEIKRTVAAPSVFIFPPSDEQLKSGTASVVCLLNNFYPREAKVQWKVDNALQSGNSQESVTEQDSKDSTYSLSSTLTLSKADYEKHKVYACEVTHQGLSSPVTKSFNRGEC
notes: G236S in H240-Hl068
- koff (FcγRIa): < 5e-05 s⁻¹

B2: GpH7-A5/GpH7-B78/GpL16-k0 (antibody, human IgG1, kappa)
heavy 1: not shown
heavy 2: QVQLVQSGAEVKKPGASVTVSCKASGYTFTDYEMHWIRQPPGEGLEWIGAIDPKTGDTAYSESFQDRVTLTADKSTSTAYMELSSLTSEDTAVYYCTRFYSYTYWGQGTLVTVSSASTKGPSVFPLAPSSKSTSGGTAALGCLVKDYFPEPVTVSWNSGALTSGVHTFPAVLQSSGLYSLSSVVTVPSSSLGTQTYICNVNHKPSNTKVDKKVEPKSCDKTHTCPPCPAPELLGGPDVFLFPPKPKDTLMISRTPEVTCVVVDVSHEDPEVKFNWYVDGVEVHNAKTKPREEQYNSTYRVVSVLTVLHQDWLNGKEYKCKVSNKALPLPEEKTISKAKGQPREPQVYTLPPSRDELTKNQVSLTCLVKGFYPSDIAVEWESNGQPENNYKTTPPVLDSDGSFFLYSKLTVDKSRWQQGNVFSCSVMHEALHNHYTQESLSLSP
light: DIVMTQSPLSLPVTPGEPASISCQASESLVHSNRNTYLHWYLQKPGQSPQLLIYKVSNRFSGVPDRFSGSGSGTDFTLKISRVEAEDVGVYYCSQNTHVPPTFGQGTKVEIERTVAAPSVFIFPPSDEQLKSGTASVVCLLNNFYPREAKVQWKVDNALQSGNSQESVTEQDSKDSTYSLSSTLTLSKADYEKHKVYACEVTHQGLSSPVTKSFNRGEC
notes: Heterodimerized anti-glypican-3 IgG1 variant
- Kd [1]: 54 nM
- KD ratio 1 (KD of GpH7-G1d/GpL16-k0 divided by KD of the antibody) [2]: 23 fold
- KD ratio 2 (KD of GpH7-A5/GpH7-B3/GpL16-k0 divided by KD of the antibody) [2]: 30 fold
- KD ratio (KD of GpH7-A5/GpH7-B78/GpL16-k0 divided by KD of the antibody) [3]: 1 fold
- Kd [4]: 54 nM

B3: GpH7-A53/GpH7-B78/GpL16-k0 (antibody, human IgG1, kappa)
heavy 1: B2 heavy 2 with L328A, E330I, D354K, H433R, E437K
heavy 2: B2 heavy 2
light: B2 light
notes: as for B2
- Kd [1]: 11 nM
- KD ratio (KD of GpH7-A5/GpH7-B78/GpL16-k0 divided by KD of the antibody) [3]: 4.9 fold

B4: GpH7-TA22/GpH7-TA58/GpL16-k0 (antibody, human IgG1, kappa)
heavy 1: B2 heavy 2 with L232Y, G234W, S296A, L328A, E330I, D354K, H433R, E437K
heavy 2: B2 heavy 2 with Y294W
light: B2 light
notes: as for B2
- KD ratio (KD of GpH7-TA22/GpH7-B78/GpL16-k0 divided by KD of the antibody) [5]: 10 fold
- Kd [6]: 1.3 nM

B5: GpH7-A57/GpH7-B78/GpL16-k0 (antibody, human IgG1, kappa)
heavy 1: B2 heavy 2 with D354K, H433R, E437K
heavy 2: B2 heavy 2
light: B2 light
notes: the chains differ only in D356K/H435R against K439E
- Kd [1]: 6.2 nM
- KD ratio 1 (KD of GpH7-G1d/GpL16-k0 divided by KD of the antibody) [2]: 199 fold
- KD ratio 2 (KD of GpH7-A5/GpH7-B3/GpL16-k0 divided by KD of the antibody) [2]: 263 fold
- KD ratio (KD of GpH7-A5/GpH7-B78/GpL16-k0 divided by KD of the antibody) [3]: 8.7 fold
- Kd [4]: 6.2 nM

B6: GpH7-TA52/GpH7-B78/GpL16-k0 (antibody, human IgG1, kappa)
heavy 1: B2 heavy 2 with L232Y, G234W, D237S, Y294W, S296A, L328A, E330I, D354K, H433R, E437K
heavy 2: B2 heavy 2
light: B2 light
notes: as for B2
- KD ratio (KD of GpH7-TA7/GpH7-B78/GpL16-k0 divided by KD of the antibody) [7]: 1.8 fold
- Kd [8]: 2.3 nM

B7: GpH7-TA7/GpH7-TA58/GpL16-k0 (antibody, human IgG1, kappa)
heavy 1: B2 heavy 2 with L232Y, G234W, D237S, S296A, L328A, E330I, D354K, H433R, E437K
heavy 2: B2 heavy 2 with Y294W
light: B2 light
notes: as for B2
- KD ratio (KD of GpH7-TA7/GpH7-B78/GpL16-k0 divided by KD of the antibody) [7]: 1.2 fold
- Kd [8]: 3.3 nM

B8: GpH7-TA54/GpH7-B78/GpL16-k0 (antibody, human IgG1, kappa)
heavy 1: B2 heavy 2 with L232Y, G234W, Y294W, S296A, L328A, E330I, D354K, H433R, E437K
heavy 2: B2 heavy 2
light: B2 light
notes: as for B2
- KD ratio (KD of GpH7-TA22/GpH7-B78/GpL16-k0 divided by KD of the antibody) [5]: 1.3 fold
- Kd [6]: 1 nM
